{"source": "patent US5916869A", "about": "“Method of treating birds in ovo” (North Carolina State University, priority 1997, dated 1999)", "origin": "cited, not measured here", "molecules": {"B1": {"name": "recombinant bovine growth hormone (protein, UniProt P01246 27-217, looked up)", "Somatotropin": "AFPAMSLSGLFANAVLRAQHLHQLAADTFKEFERTYIPEGQRYSIQNTQVAFCFSETIPAPTGKNEAQQKSDLELLRISLLLIQSWLGPLQFLSRVFTNSLVFGTSDRVYEKLKDLEEGILALMRELEDGTPRAGQILKQTYDKFDTNMRSDDALLKNYGLLSCFRKDLHKTETYLRVMKCRRFGEASCAF", "notes": "recombinant bovine growth hormone injected into sheep in a cited study"}}, "system": "sodium-dependent duodenal active transport", "conditions": "sheep, injected", "data": [{"molecule": "B1", "values": [{"measurement": "increase of sodium-dependent duodenal active transport of glucose", "result": "approximately 60%"}, {"measurement": "increase of transport of proline", "result": "approximately 30%"}]}]}
